Assays:
B3 mutant of Rb = molecular target: T1, B3 mutant of Rb (Homo sapiens, UniProt P06400); test: binding of GST-RIZ (245-573) to 35S-labeled Rb mutant, immunoprecipitation with anti-RIZ antiserum; conditions: deletion C-terminal to the Rb binding pocket
T1 construct: made in house; host or cells: in vitro transcription/translation
T1 sequence (P06400 1-803): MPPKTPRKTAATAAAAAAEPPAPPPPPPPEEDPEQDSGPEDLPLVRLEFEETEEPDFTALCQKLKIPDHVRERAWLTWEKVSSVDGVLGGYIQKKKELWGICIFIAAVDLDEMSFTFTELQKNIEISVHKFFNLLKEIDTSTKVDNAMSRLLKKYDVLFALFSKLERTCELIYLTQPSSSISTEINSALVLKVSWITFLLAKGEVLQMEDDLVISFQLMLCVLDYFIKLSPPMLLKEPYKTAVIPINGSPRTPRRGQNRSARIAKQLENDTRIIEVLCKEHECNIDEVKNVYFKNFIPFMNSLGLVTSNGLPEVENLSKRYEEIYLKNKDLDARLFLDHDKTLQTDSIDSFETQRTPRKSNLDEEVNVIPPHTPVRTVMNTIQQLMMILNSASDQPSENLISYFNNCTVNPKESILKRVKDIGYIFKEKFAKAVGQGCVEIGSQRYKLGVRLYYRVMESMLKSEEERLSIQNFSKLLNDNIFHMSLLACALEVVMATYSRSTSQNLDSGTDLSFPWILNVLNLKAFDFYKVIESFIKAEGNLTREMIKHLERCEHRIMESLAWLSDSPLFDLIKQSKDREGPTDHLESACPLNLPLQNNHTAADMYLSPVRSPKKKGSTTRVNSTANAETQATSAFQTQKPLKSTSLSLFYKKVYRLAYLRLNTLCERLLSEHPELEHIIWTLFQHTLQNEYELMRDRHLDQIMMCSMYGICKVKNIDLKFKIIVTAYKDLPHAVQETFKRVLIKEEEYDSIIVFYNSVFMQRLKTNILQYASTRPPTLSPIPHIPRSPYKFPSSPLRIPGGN
Experimental: (§1) The 56 kD Rb fragment that binds to RIZ is a C-terminal fragment containing the Rb pocket binding region and a C-terminal extension. To further define the portion of 56 kD Rb that binds to RIZ, several Rb mutant polypeptides were tested for binding to RIZ. Mutant and full length Rb were cloned and in vitro transcribed/translated as described previously (Huang et al., supra, 1990). H209 is a point mutation resulting in a single amino acid change in Rb that was identified in the small cell lung cancer H209 cell line (American Type Culture Collection (ATCC) #HTB 172). The various Rb forms were tested for binding to glutathionine S-transferase (GST) fused to a fragment of RIZ from amino acid position 245-573 (GST-RIZ (245-573)). This RIZ fragment contains all of the E1A motifs related to binding Rb and was constructed by cloning a Stu I-Hpa I RIZ fragment (nucleotide 795-3068) into vector pBSK+ to make pBSK+SH. An Eco RI fragment was removed from pBSK+SH and ligated into pGEX-KG to produce vector pKG7.1S containing GST-RIZ (245-573).
(§2) The binding between purified GST-RIZ (245-573) and the above radiolabeled Rb wild-type and deletion mutants was determined by immunoprecipitation with an anti-RIZ antiserum followed by SDS-PAGE and autoradiography. […]

rat ovary genomic DNA = test: filter-based DNA-binding assay
From the text: To evaluate whether the zinc finger domains of RIZ can bind to DNA, the RIZ finger motifs 1 to 3 from amino acid position 245-573 or finger 4 to 6 from amino acid position 1114-1260 were expressed as GST fusion proteins, GSTZ13 and GSTZ46, respectively. The GST-RIZ fragments were purified by glutathionine agarose chromatography (Guan and Dixon, Anal. Biochem. 192:262-267 (1991), which is incorporated herein by reference) and evaluated for binding in a filter-based DNA-binding assay (Sukegawa and Blobel, Cell 72:29-38 (1993), which is incorporated herein by reference). To obtain GSTZ46, a fragment encoding RIZ (1114-1260) was made by PCR using primers 5′-GTGGTCCAAG AAACATTC-3′ (SEQ ID NO: 17) and 5′-TCGTGTAAAG CTCTTCAG-3′ (SEQ ID NO: 18) and pCMVRIZ as template. The PCR fragment was cloned into pBKS+, then into pGEX-KG (Guan and Dixon, supra, 1991).
The filter-based DNA binding assay was performed by electrophoresing 0.5 μg of purified GST or GST-RIZ fusion proteins by SDS-PAGE and transferring the proteins to nitrocellulose. The proteins were renatured by incubating the nitrocellulose for 3 hr in binding buffer (50 mM Tris-HCl, pH 8, 100 mM KCl, 0.1% Triton X-100™, 10% glycerol, and 0.1 mM ZnCl2). ^32P-labeled, randomly sheared rat ovary genomic DNA was added to the buffer and the nitrocellulose was incubated for an additional 3 hr. […]

[1] = system: Rb having a deletion within the pocket; test: binding of GST-RIZ (245-573) to 35S-labeled Rb pocket deletion mutants, immunoprecipitation with anti-RIZ antiserum
Experimental: as §1, §2

B1: GST-RIZ (245-573): glutathionine S-transferase fused to RIZ fragment a.a. 245-573 containing zinc fingers 1-3 (protein)
chain: CEPQPEVDGKQEVTDCEVNDVEEEELEEEEELEEEEEEELGEDGVEEADMPNESSAKEPEIRCEEKPEDLLEEPQSMSNEAREDSPDVTPPPHTPRAREEANGDVLETFMFPCQHCERKFATKQGLERHMHIHISTINHAFKCKYCGKRFGTQINRRRHERRHETGLKRRPSMTLQSSEDPDDGKGENVTSKDESSPPQLGQDCLILNSEKTSQEVLNSSFVEENGEVKELHPCKYCKKVFGTHTNMRRHQRRVHERHLIPKGVRRKGGLLEEPQPPAEQAPPSQNVYVPSTEPEEEGETDDVYIMDISSNISENLNYYIDGKIQTNSS
modifications: left off: a dimerising Fc or GST
- binding to B3 mutant of Rb (B3 mutant of Rb): showed binding
- binding to 32P-labeled rat DNA (rat ovary genomic DNA; 0.5 μg protein, binding buffer with 0.1 mM ZnCl2): bound
- zinc dependence of DNA binding (rat ovary genomic DNA; with ZnCl2 versus 10 mM EDTA, 2 mM DTT and no ZnCl2): Zn^++ ion dependent manner
- binding to three forms of Rb having a deletion within the pocket [1]: failed to bind

— patent US6468985B1, “Retinoblastoma protein-interacting zinc finger proteins” (The Burnham Institute, priority 1994, dated 2002)
